This note sets out measurements from US20240245805A1 (Orna Therapeutics, Inc., priority 2020, published 2024).

B1: HAV FH1 (nucleic acid)
chain: CTTGATACCTCACCGCCGTTTGCCTAGGCTATAGGCTAAATTTCCCTTTCCCTGTCCTTTCCCTATTTCCTTTTGTTTTGTTTGTAAATATTAATTCCTGCAGGTTCAGGGTTCTTTAATCTGTTTCTCTATAAGAACACTCAATTTTCACGCTTTCTGTCTCCTTTCTTCCAGGGCTCTCCCCTTGCCCTAGGCTCTGGCCGTTGCGCCCGGCGGGGTCAACTCCATGATTAGCATGGAGCTGTAGGAGTCTAAATTGGGGACGCAGATGTTTGGGACGTCGCCTTGCAGTGTTAACTTGGCTTTCATGAACCTCTTTGATCTTCCACAAGGGGTAGGCTACGGGTGAAACCTCTTAGGCTAATACTTCTATGAAGAGATGCCTTGGATAGGGTAACAGCGGCGGATATTGGTGAGTTGTTAAGACAAAAACCATTCAACGCCGAAGGACTGGCTCTCATCCAGTGGATGCATTGAGGGAATTGATTGTCAGGGCTGTCTCTAGGTTTAATCTCAGACCTCTCTGTGCTTAGGGCAAACACTATTTGGCCTTAAATGGGATCCTGTGAGAGGGGGTCCCTCCATTGACAGCTGGACTGTTCTTTGGGGCCTTATGTGGTGTTTGCCTCTGAGGTACTCAGGGGCATTTAGGTTTTTCCTCATTCTTAAACAATA
modifications: lipid formulation; Hepatovirus A
B2: Simian Sapelovirus 1 (nucleic acid, listed as Sapelovirus sp.)
DNA: CCAAGGATCTGTTGCATAGGCGTTGTATCCCCTAACCTTTTACCTACCCATCCCAATAGGACTGGTATTTCGGTTTTGATTGAGTAATGGATACTGATTCTATACCTGTTACCCATTCAGGGGAAAAATGGAGTTTCTTTCATGGATCTGACTTGATATGACCAAGAGTCAACACTTTGCGTGTTGGCCGTATGGAATGCTTTAAGGTTTATTCTTTGGATTATGACTTCAGGGTTGGCCGCCCAGGATAAAAGGCAATTGTGGTAAGTGATGTTAGTCATTGGTGGTTGAAACCTGCCTAAGACGTCCTAGGTCTACGCTGTGCGGGCCGAAGTAAGCTTAGGAATAACAGGGAGTATGCCATTTTCTGCTTTCACCCAACACGACCGTACACGAAAGAGCTAGAGGCACTTTGGGGCAAAGGGAAAAGCTTTGCTTAGCCCGAATGTTCATTTGAGTCCTTGACGAATGCGTCCCGTCTGTCCCGACGGTGAGGCGTATGGCGCATGCTCATGGCATTACCCAATGGTGTATCTGTGAGGGGGGGGCTCCTCACACTTAGTCTAGTGCTACCTGACAGGGCCGCGGCTGGTCGTTTGTGTATGGTATAACCAGTAGTAATCCCCCATGGATTGCTTTAACTTCCCCTCCTCCCTTACCAAGACATTCTCTAAG
B3: Parechovirus D (nucleic acid)
DNA: ACATGGGGCAGGTGTGCTGTGCCAAGAGCAACACTACGGTGGCCGAGCCGATGGTTCGTCACCACGTAGTAGGACTCCGTAGTGCTTGGTTACGGCGGACGTAAGTCAGTTGAGTGATGTCTAAGTGGCAAACCATGAGTACATGGTAACCTTGTGTGGACTCGCGGGACGGAATTTCCTATCCCATTGACTCCTTGTAGCAAGGTGGGTATACCCAACCACAATGGCAGCACCCTGGGTGGGAACCCAGGGGCCTGGATTAGTATCCAGTCACACAGCCTGATAGGGTGGCGGCTCAGCCACTGACCAGCGTCTCTAAATAATTGTGAGCTGTTCATGCACC
modifications: lipid formulation; Parechovirus D
B4: Parechovirus C (nucleic acid)
DNA: CGGTCATCCCCCTTTCCCCACAGCCGGTGTGGGTTCTAATCGGCTCCTACTAAACACCTAAGCATCACTGCGCCTCTATCTCTCCTATCCACAGGTCTAAGACGCTTGGAATAAGACATGTGGGTGCAATAGGAAGATTAGCTAGTCCAATCTCTCCTTCCAGCTACGCTTCTCCCTTCGATGAGCGTAGGGGGGGCCCCCACCTCCCTCATCTCTGGATAGGGCTCTTGCTACGGGGCTTTCCCGTCTGGACCAGCAGGCCCACTGGTGCGCTTCCATTCAAGTTTAGTGTGCATTACTGTCTGAAATATTGCTTTGCTAGGATCTAGTGTAGCGACCTGCATATTGCCAGCGGACTTCCCCACATGGTAACATGTGCCTCTGGGCCCAAAAGGCATGTCTTTGACCGTATGCAGTACAACCCCAGTATAGGTCCTTTCTATGGCAGTATGGATCTCAGTGATGAGTCTATACAGAATATGGAAGTGGTTCGGATATGTCAGCCCGAAGGATGCCCAGAAGGTACCCGCAGATAACCTTAAGAGACTGTGGATCTGATCTGGGGCCCACCACCTTCGGGTGGGTAGAAGCTAACCATGCCTTGGGTTAAAAAACGTCTAAGGGCTGACCAGACCCGGGGGATCCGGGTTTTCCCTATCTTGACCTACTCTAATC
modifications: lipid formulation; Parechovirus C
B5: Simian Sapelovirus 2 (nucleic acid, listed as Sapelovirus sp.)
DNA: TTTTAACTTGTTATGACATTCAAGGAAAAAATGTCTTTTTCATTATGGGACTGACCTGTTTATGAACATGAGCAGCGGCACTGCTCCACGGGCTATCCGTGTAAGAAATATTGATTATTCTTATGGATCATGATTTCAGGGTTGGCCGCCCAGTCTAAAAGGCAATTGTGGTAAGCTATGTAAGTAGTTGGCTGTTGAAAGGAGCCAAGTACATCCTAGGTCTACGCTGTGCGGGCCGAAGTAAGACTTGGAACAACTCTGAGTAGGCAGTTTTTCTCTTTAGCCCAACACGACCGCATACTGAAGAGCTAGAGGCACTTTGGGGCAAAGGTAAAAGCATTGCTTAGACCGAATGTTCAATGAGACCTTGACGAGTGCTGTCACAGTGTCCCCTGATGGCAGTATGGCGCATGCTCTTGGCATTACCCATATGTGTATCTATAGGGGGGGGGCCCCCTATACTTAGTCTAGTGCTACCTGACAGGGCCGCGGCTGGTCGTCGGTGTGTGGTATAACCAGTAGTAATCCCCCATGGATTGCTTTAACTCCCCCTCCTCCCTCAACAAAACTTTCTCTAAG
B6: HAV HM175 (nucleic acid)
chain: CGCCGTTTGCCTAGGCTATAGGCTAAATTTTCCCTTTCCCTTTTCCCTTTCCTATTCCCTTTGTTTTGCTTGTAAATATTGATTTGTAAATATTGATTCCTGCAGGTTCAGGGTTCTTAAATCTGTTTCTCTATAAGAACACTCATTTCACGCTTTCTGTCTTCTTTCTTCCAGGGCTCTCCCCTTGCCCTAGGCTCTGGCCGTTGCGCCCGGCGGGGTCAACTCCATGATTAGCATGGAGCTGTAGGAGTCTAAATTGGGGACACAGATGTTTGGAACGTCACCTTGCAGTGTTAACTTGGCTTTCATGAATCTCTTTGATCTTCCACAAGGGGTAGGCTACGGGTGAAACCTCTTAGGCTAATACTTCTATGAAGAGATGCCTTGGATAGGGTAACAGCGGCGGATATTGGTGAGTTGTTAAGACAAAAACCATTCAACGCCGGAGGACTGACTCTCATCCAGTGGATGCATTGAGTGGATTGACTGTCGGGGCTGTCTTTAGGCTTAATTCCAGACCTCTCTGTGCTTGGGGCAAACATCATTTGGCCTTAAATGGGATTCTGTGAGAGGGGATCCCTCCATTGCCAGCTGGACTGTTCTTTGGGGCCTTATGTGGTGTTTGCCGCTGAGGTACTCAGGGGCATTTAGGTTTTTCCTCATTCTTAAATAATA
modifications: lipid formulation; Hepatovirus A

The subject of the data set is HEK293 cells. In kind it is cell-based, human. Conditions: circular RNA encoding Gluc with the listed IRES (UTR truncated to 675 nt) transfected into HEK293 cells; supernatant after 24 hours.
Turning to B1, the “Expression (luminescence from secreted Gluc protein)” value (shortened to “Expression”) was found to be 1.24E+05.

B2: the “Expression” value is recorded as 6.55E+07.

With B3, the “Expression” value was 3.10E+05.

For B4, the “Expression” value came to 1.24E+06.

Turning to B5, the “Expression” value came to 4.24E+07.

Regarding B6, the “Expression” value amounted to 4.96E+05.
